From patent US20250041430A1, “CONJUGATE COMPOUND AND METHOD FOR PRODUCING CONJUGATE COMPOUND” (NIPPON SHOKUBAI CO., LTD., priority 2021, published 2025) come the findings set out here.

Data set [1] concerns the target Exonuclease I (Escherichia coli, UniProt P04995). The note with it: room temperature (about 25° C.), 0, 10 and 20 minutes, FIG. 4.
Description: (§1) Quantitative analysis of PGLMA-Mal-nucleic acid and an unmodified nucleic acid in a nucleic acid degradation test described below was performed by ion exchange chromatography. At this time, the analysis conditions were as follows. […]
(§2) To a test tube, 42.5 μL (1.00 nmol) of the PGLMA-Mal-nucleic acid solution obtained in the section of [Preparation of conjugate of Polymer 1 and oligonucleic acid], 5 μL of 10× buffer solution (670 mM Glycine-KOH (pH 9.5), 10 mM DTT, 67 mM MgCl2), 2.5 μL of ultrapure water, and 0.5 μL of Exonuclease I (Takara Bio Inc.) (0.05 Unit/L as the final concentration of Exonuclease I in the mixed solution) were added and mixed, and the mixture was allowed to stand still at room temperature (about 25° C.). […] After 0, 10, and 20 minutes from the start of the reaction, the reaction liquid was collected and analyzed under the analysis conditions in the section of [Analysis conditions of conjugate of Polymer 1 and oligonucleic acid] or the section of [Analysis conditions of unmodified oligonucleic acid], and a residual rate of the nucleic acid was calculated from the following formula.
The target in data set [2] is T1, Exonuclease I (Escherichia coli, UniProt P04995).
T1 sequence (P04995 whole entry, looked up): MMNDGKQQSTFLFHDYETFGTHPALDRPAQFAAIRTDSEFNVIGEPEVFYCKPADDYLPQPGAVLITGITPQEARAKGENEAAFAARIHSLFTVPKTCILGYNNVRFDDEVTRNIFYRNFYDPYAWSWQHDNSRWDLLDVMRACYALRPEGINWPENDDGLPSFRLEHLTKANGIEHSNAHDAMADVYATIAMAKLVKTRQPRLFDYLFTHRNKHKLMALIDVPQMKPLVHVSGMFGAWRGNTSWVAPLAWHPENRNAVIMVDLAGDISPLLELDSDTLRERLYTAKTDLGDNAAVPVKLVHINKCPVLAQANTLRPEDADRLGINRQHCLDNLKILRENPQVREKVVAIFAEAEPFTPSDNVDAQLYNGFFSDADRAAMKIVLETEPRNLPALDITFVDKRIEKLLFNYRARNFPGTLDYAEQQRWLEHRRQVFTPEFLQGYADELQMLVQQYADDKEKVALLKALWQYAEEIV
The note with it: room temperature (about 25° C.), 0, 10 and 20 minutes, FIG. 4. This is another data set of the same source.
Description: as §1, §2

For data set [3], the system named is complement (SC5b-9) in human serum. The data set is described as follows: Evaluation of complement activation (2), MicroVue SC5b-9 Plus EIA. The note with it: 37° C., 1 hour, compared with the oligonucleic acid, FIG. 5. An excerpt:
Using a microspectrophotometer (NanoDrop ND-1000, Thermo Fisher Scientific Inc.), Conjugates 5 and 6 thus obtained were each diluted with PBS so that the value at a wavelength of 260 nm was 100. On the other hand, a conjugate (PEG-nucleic acid) prepared according to the description in the section of [Preparation of conjugate of polymer and oligonucleic acid] except that maleimide PEG (SUNBRIGHT ME-100MA, NOF CORPORATION) was used instead of Polymer 3, and the oligonucleic acid (base sequence (5′-d (TAGCACCATGGTTT)-3′)) described in Example 2 were each dissolved in 20 μL of PBS so that the value at a wavelength of 260 nm was 100 by the method described above to prepare a control group. Each solution (4 μL) and human serum (purchased from Tennessee Blood Service) (16 μL) were mixed and incubated at 37° C. for 1 hour. […] For each mixed solution, complement activation was evaluated using an enzyme immunoassay kit (MicroVue™ SC5b-9 Plus EIA, Quidel Corporation). The complement concentration was measured according to the manufacturer's protocol, and the measurement was performed on a plate reader (SH-9000, CORONA ELECTRIC Co., Ltd.). A reaction liquid obtained by reacting PBS with human serum was used as a negative control, and a ratio of the measured value of the negative control and a measured value in each reaction liquid was calculated by the following formula.

Data set [4] shares this test system. The data set is described as follows: Evaluation of complement activation (1), MicroVue SC5b-9 Plus EIA. The note with it: 37° C., 1 hour, compared with BSA, FIG. 2. The method, then: Using a microspectrophotometer (NanoDrop ND-1000, Thermo Fisher Scientific Inc.), Conjugates 1 to 4 subjected to ultrafiltration treatment were each diluted with PBS so that the value at a wavelength of 280 nm was 100. On the other hand, a conjugate (PEG-BSA) prepared according to the description in the section of [Preparation of conjugate with protein] except that maleimide PEG (SUNBRIGHT ME-100MA, NOF CORPORATION) was used instead of Polymer 1, and 100 mg of BSA were each dissolved in 1 mL of PBS to prepare a control group. Each solution (40 μL) and human serum (purchased from Tennessee Blood Service) (160 μL) were mixed and incubated at 37° C. for 1 hour. […] For each mixed solution, complement activation was evaluated using an enzyme immunoassay kit (MicroVue™ SC5b-9 Plus EIA, Quidel Corporation). The complement concentration was measured according to the manufacturer's protocol, and the measurement was performed on a plate reader (SH-9000, CORONA ELECTRIC Co., Ltd.). A reaction liquid obtained by reacting PBS with human serum was used as a negative control, and a ratio of the measured value of the negative control and a measured value in each reaction liquid was calculated by the following formula.
(Ratio with negative control)=(Measured value in each sample)÷(Measured value of negative control)

Take “5′-d (TAGCACCATGGTTT)-3′ [unmodified nucleic acid]”: the “degradation of the nucleic acid (residual rate of the nucleic acid)” value in data set [1] was “degradation of the nucleic acid was observed over time”.

For “Conjugate 5: maleimide group of Polymer 1 bonded to the thiol group of the oligonucleic acid 5′-d (TAGCACCATGGTTT)-3′ (DNA, backbone not given here; conjugated to polymer via maleimide-thiol, further chemistry not fully specified)”, the “degradation of the nucleic acid (residual rate of the nucleic acid)” value in data set [2] is on record as “remarkable degradation of the nucleic acid was not observed”. The “complement activation (ratio with negative control)” value in data set [3] was “no large difference from the measured value of the oligonucleic acid”.

As to “PEG-BSA: conjugate with BSA prepared using maleimide PEG (SUNBRIGHT ME-100MA) instead of Polymer 1”, in data set [4], the “complement activation (ratio with negative control)” value was “strong complement activation occurred”.
